From patent US20100256338A1 (Hoffmann-La Roche, published 2010)

Key:
EGFR-ECD = target: T1, EGFR-ECD (human, UniProt P00533 25-645); experiment: SPR (Biacore T100), antibody captured by anti-human IgG, EGFR-ECD as analyte, 25 C
T1 construct: extracellular domain; also called human EGF-Receptor

[1] = target: T2, IGF-1R (soluble analyte in SPR) (human, UniProt P08069 31-932, limits assumed); experiment: SPR (Biacore T100), antibody captured by anti-human IgG, IGF-1R as analyte, 25 C
T2 construct: also called human IGF1-Receptor

B1: humanized <EGFR>ICR62 (antibody, V domains shown)
VH: QVQLVQSGAEVKKPGSSVKVSCKASGFTFTDYKIHWVRQAPGQGLEWMGYFNPNSGYSTYAQKFQGRVTITADKSTSTAYMELSSLRSEDTAVYYCARLSPGGYYVMDAWGQGTTVTVSS
VL: DIQMTQSPSSLSASVGDRVTITCRASQGINNYLNWYQQKPGKAPKRLIYNTNNLQTGVPSRFSGSGSGTEFTLTISSLQPEDFATYYCLQHNSFPTFGQGTKLEIKR
notes: Humanized rat anti-EGFR antibody, 'wildtype' IgG parent; also called humanized rat anti-EGFR antibody <EGFR>ICR62
Kd (EGFR-ECD): 0.5 nM

B2: scFab-XGFR2_2720 (bispecific antibody)
chain 1: not shown
chain 2: DIQMTQSPSSLSASVGDRVTITCRASQGINNYLNWYQQKPGKAPKRLIYNTNNLQTGVPSRFSGSGSGTEFTLTISSLQPEDFATYYCLQHNSFPTFGQGTKLEIKRTVAAPSVFIFPPSDEQLKSGTASVVCLLNNFYPREAKVQWKVDNALQSGNSQESVTEQDSKDSTYSLSSTLTLSKADYEKHKVYACEVTHQGLSSPVTKSFNRGEC
Kd [1]: 11 nM | Kd (EGFR-ECD): 0.5 nM
